5 molecules from patent publication US20140378537A1 (Genentech, published 2014) can be followed below.

T1: BATF/JunB heterodimer (murine, UniProt O35284 1-125; P09450 1-344)
T1 construct: Formed by mixing 293T nuclear extracts, or endogenous in Th17 nuclear extracts; also called BATF/JunB complex
T1 sequence (looked up) 1: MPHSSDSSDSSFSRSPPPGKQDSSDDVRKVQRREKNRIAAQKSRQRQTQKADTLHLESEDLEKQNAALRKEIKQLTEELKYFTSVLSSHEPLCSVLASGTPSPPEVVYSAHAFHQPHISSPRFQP
T1 sequence (looked up) 2: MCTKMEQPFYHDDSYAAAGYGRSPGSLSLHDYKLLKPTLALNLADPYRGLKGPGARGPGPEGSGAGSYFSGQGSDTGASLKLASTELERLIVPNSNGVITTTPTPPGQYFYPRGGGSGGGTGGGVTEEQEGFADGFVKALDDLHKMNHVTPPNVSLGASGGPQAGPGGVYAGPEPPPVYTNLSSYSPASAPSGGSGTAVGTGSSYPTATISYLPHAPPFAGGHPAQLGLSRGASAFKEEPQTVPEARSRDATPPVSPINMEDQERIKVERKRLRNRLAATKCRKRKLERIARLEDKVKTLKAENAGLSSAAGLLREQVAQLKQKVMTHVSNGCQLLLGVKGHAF

T2: JunB/FosL2 heterodimer (murine, UniProt P09450 1-344; P47930 1-326)
T2 construct: also called FosL2/JunB heterodimer
T2 sequence (looked up) 1: T1 sequence (looked up) 2
T2 sequence (looked up) 2: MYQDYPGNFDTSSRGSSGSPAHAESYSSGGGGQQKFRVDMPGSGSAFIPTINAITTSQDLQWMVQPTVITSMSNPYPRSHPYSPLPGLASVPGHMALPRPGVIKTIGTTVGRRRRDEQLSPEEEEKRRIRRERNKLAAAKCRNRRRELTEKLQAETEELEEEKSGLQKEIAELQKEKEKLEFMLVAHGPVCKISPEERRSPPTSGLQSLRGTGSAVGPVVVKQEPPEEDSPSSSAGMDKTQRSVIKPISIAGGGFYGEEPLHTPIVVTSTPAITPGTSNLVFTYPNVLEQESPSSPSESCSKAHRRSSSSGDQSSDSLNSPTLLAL

T3: His-tagged IRF4 (murine, UniProt Q64287 1-450)
T3 construct: not shown: His tag
T3 sequence: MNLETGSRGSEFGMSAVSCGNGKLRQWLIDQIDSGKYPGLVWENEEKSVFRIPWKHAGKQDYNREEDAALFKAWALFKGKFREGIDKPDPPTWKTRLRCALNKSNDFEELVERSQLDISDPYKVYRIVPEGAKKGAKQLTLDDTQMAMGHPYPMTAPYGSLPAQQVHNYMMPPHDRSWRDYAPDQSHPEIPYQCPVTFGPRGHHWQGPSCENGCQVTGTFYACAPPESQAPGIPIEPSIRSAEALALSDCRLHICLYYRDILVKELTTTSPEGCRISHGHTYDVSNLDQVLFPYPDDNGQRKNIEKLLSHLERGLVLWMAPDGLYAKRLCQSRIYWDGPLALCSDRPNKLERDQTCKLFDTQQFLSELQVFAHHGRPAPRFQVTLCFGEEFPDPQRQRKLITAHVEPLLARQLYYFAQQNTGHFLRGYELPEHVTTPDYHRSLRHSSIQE

T4: murine JunB (murine, UniProt P09450 1-344)
T4 construct: AP-1 family transcription factor, used as nuclear extract
T4 sequence (looked up): T1 sequence (looked up) 2

B1: murine IRF-8 (other)
chain: MCDRNGGRRLRQWLIEQIDSSMYPGLIWENDEKTMFRIPWKHAGKQDYNQEVDASIFKAWAVFKGKFKEGDKAEPATWKTRLRCALNKSPDFEEVTDRSQLDISEPYKVYRIVPEEEQKCKLGVAPAGCMSEVPEMECGRSEIEELIKEPSVDEYMGMTKRSPSPPEACRSQILPDWWVQQPSAGLPLVTGYAAYDTHHSAFSQMVISFYYGGKLVGQATTTCLEGCRLSLSQPGLPKLYGPDGLEPVCFPTADTIPSERQRQVTRKLFGHLERGVLLHSNRKGVFVKRLCQGRVFCSGNAVVCKGRPNKLERDEVVQVFDTNQFIRELQQFYATQSRLPDSRVVLCFGEEFPDTVPLRSKLILVQVEQLYARQLVEEAGKSCGAGSLMPALEEPQPDQAFRMFPDICTSHQRPFFRENQQITV
notes: Expressed from a CMV vector encoding murine IRF-8 in 293T cells and used as nuclear extract; also called ICSBP
B2: murine IRF-4 (other)
chain: T3 sequence
notes: Transcription factor; Expressed from CMV vectors encoding murine IRF-4 in 293T cells and used as nuclear extract, or endogenous in mouse Th17 nuclear extracts; also called Pip
B3: murine IRF-3 (other, UniProt P70671 1-419, looked up)
chain: METPKPRILPWLVSQLDLGQLEGVAWLDESRTRFRIPWKHGLRQDAQMADFGIFQAWAEASGAYTPGKDKPDVSTWKRNFRSALNRKEVLRLAADNSKDPYDPHKVYEFVTPGARDFVHLGASPDTNGKSSLPHSQENLPKLFDGLILGPLKDEGSSDLAIVSDPSQQLPSPNVNNFLNPAPQENPLKQLLAEEQWEFEVTAFYRGRQVFQQTLFCPGGLRLVGSTADMTLPWQPVTLPDPEGFLTDKLVKEYVGQVLKGLGNGLALWQAGQCLWAQRLGHSHAFWALGEELLPDSGRGPDGEVHKDKDGAVFDLRPFVADLIAFMEGSGHSPRYTLWFCMGEMWPQDQPWVKRLVMVKVVPTCLKELLEMAREGGASSLKTVDLHISNSQPISLTSDQYKAYLQDLVEDMDFQATGNI
notes: Used as 293T nuclear extract
B4: Flag-tagged BATF (other, murine, UniProt O35284 1-125, looked up)
chain: T1 sequence (looked up) 1
notes: not shown: Flag tag
B5: murine BATF (other, UniProt O35284 1-125, looked up)
chain: T1 sequence (looked up) 1
notes: AP-1 family transcription factor, used as nuclear extract

Assay [1] concerns the target T1, BATF/JunB heterodimer. The experiment in a line: EMSA, 293T nuclear extracts, AICE probes. The source says: (§1) (a-d) EMSAs using the Bcl11b probe and 293T nuclear extracts as a source of indicated proteins (a) c-Jun, BATF, IRF-4, (b) FosL2, JunB, IRF-4, (c) JunB, BATF, IRF-8 or (d) JunB, BATF, IRF-3 (e) EMSA using an ISRE containing probe and IRF-3 or IRF-4. Complexes were supershifted with indicated antibodies. Red and green arrows mark the ternary and quaternary protein-DNA complexes, respectively as in FIG. 1d. Data are representative of at least two independent experiments. (f-h) Th0 cells and Th2 cells differentiated in vitro (42 hours) and LPS-activated dendritic cells (6 hours) were subjected to chromatin crosslinking and immunoprecipitation with antibodies directed against IRF-4. Immunoprecipitated chromatin was deep sequenced and analyzed as in FIG. 3a.
(§2) Nuclear extracts were prepared from 293T cells (2×107), 48 hours after their transfection or from Th17 cells (8×107), 42 hours after their activation and differentiation. […]
For orientation: In EMSA bound probe runs differently from free probe, usually more slowly.

Assay [2] addresses T5, c-Jun/BATF heterodimer (murine, UniProt P05627 1-334; O35284 1-125).
T5 construct: also called BATF/cJun
Briefly: EMSA, 293T nuclear extracts, AICE probes.
Source text: as §1, §2

The target of assay [3] is T2, JunB/FosL2 heterodimer. Briefly: EMSA on AICE DNA probes, 293T nuclear extracts.
Source text: as §1, §2

Assay [4] addresses B5. Briefly: cell-based or functional assay.
In assay [5] the target is T1, BATF/JunB heterodimer. Briefly: EMSA on Bcl11b AICE DNA probe, 293T nuclear extracts.
Source text: as §1, §2

Assay [6] concerns the target T3, His-tagged IRF4. The experiment in a line: EMSA, 293T nuclear extracts, CTLA-4 and Bcl11b AICE DNA probes (DNA-dependent ternary complex). On the procedure: Positions of various protein/DNA complexes are indicated. Nuclear extracts were incubated with either the wild type Bcl11b or CTLA-4 probes or their indicated mutant counterparts in which either the IRF or AP-1 site or both were altered.
(§3) Nuclear extracts were prepared from 293T cells (2×107), 48 hours after their transfection or from Th17 cells (8×107), 42 hours after their activation and differentiation. Cells were incubated for 10 min in 1 ml of hypotonic buffer (10 mM Hepes pH7.6, 10 mM KCl, 0.1 mM EGTA, 1.5 mM MgCl, 1 mM DTT, 0.5 mM PMSF and the complete protease inhibitor mixture (Roche, #11697498001) and then lysed with the addition of 0.01% Triton-x-100. After centrifugation at maximum speed in an Eppendorf microfuge for 15 seconds the nuclear pellet was resuspended in 80 μl of the following buffer (420 mM NaCl, 20 mM Hepes pH7.9, 0.2 mM EDTA, 25% Glycerol, 1 mM DTT, 0.5 mM PMSF with complete protease inhibitor mixture). Nuclear proteins were extracted with intermittent vortexing and incubation for 15 minutes at […]. In-vitro binding assays were performed using reagents from the light-shift chemiluminescent EMSA kit (Thermo scientific) according to the manufacturer's protocol, with the exception of using FAMlabeled probes (Table 2, below). Protein-DNA complexes were resolved using 6%-TBE Gels (Invitrogen) at 100V and imaged with a Typhoon Trio Imager (Amersham Biosciences). […]

The target in assay [7] is T4, murine JunB. Briefly: EMSA supershift, Th17 nuclear extracts, IRF-site-mutated AICE probes.
In assay [8] the target is B2. Briefly: EMSA, Th17 nuclear extracts, Bcl11b and CTLA-4 probes. The procedure:
as §3

T5 sequence (P05627 whole entry, one chain of several): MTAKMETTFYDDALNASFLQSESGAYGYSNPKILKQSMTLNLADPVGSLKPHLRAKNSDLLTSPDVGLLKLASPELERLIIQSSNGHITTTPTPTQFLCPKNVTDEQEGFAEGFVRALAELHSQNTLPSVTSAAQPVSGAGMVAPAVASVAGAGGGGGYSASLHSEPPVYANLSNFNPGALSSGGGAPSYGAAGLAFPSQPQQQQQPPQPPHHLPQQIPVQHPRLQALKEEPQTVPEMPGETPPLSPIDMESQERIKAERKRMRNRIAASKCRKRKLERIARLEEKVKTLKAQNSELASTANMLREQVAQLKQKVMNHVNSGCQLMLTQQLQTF

Consider B1, for which, in assay [1], the binding result was “binds”.
B2: the binding result in assay [2] is listed as “binds”. The binding result in assay [3] is “no binding”. Besides, in assay [4], the “CTLA-4 levels (intracellular, flow cytometry) in T cells transduced with IRF4 and/or BATF retroviruses” value is 3 fold; the “ICOS levels (surface expression, flow cytometry) in Th0 cells transduced with IRF4 and/or BATF retroviruses” value is roughly 6 fold; the “frequency of IL-17A producing cells by intracellular flow cytometry” value was found to be 2 fold.
As to B3, the binding result in assay [5] is listed as “no binding”.
For the molecule B4, the binding result in assay [6] is given as “binds”.
Take B5: the binding result in assay [7] and in assay [8] was “binds” throughout.
